{"source": "patent US20250101108", "key": {"PD-L1": {"target": "PD-L1 (UniProt Q9NZQ7)", "sequence (Q9NZQ7 19-290)": "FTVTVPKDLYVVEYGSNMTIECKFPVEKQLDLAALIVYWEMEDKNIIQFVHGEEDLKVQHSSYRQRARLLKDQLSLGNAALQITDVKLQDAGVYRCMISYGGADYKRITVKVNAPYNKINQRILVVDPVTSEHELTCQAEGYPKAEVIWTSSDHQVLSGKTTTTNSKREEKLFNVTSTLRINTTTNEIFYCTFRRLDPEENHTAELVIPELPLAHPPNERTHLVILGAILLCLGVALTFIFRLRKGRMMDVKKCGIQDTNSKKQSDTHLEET"}, "PD-L1-FLAG": {"target": "PD-L1-FLAG (UniProt Q9NZQ7)", "sequence (Q9NZQ7 19-290)": "as above"}, "PD-L2-FLAG": {"target": "PD-L2-FLAG (UniProt Q9BQ51)", "sequence (Q9BQ51 20-273)": "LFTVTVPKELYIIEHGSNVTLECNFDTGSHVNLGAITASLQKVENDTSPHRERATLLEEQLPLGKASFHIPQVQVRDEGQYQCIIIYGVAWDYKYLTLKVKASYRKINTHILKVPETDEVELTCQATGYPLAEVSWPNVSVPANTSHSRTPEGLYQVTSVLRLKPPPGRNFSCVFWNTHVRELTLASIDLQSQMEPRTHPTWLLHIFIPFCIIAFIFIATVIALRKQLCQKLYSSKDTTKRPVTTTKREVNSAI"}}, "data": [{"substance": "E3 ligase ITCH", "values": [{"measurement": "poly-ubiquitination of endogenous PD-L1 (anti-PD-L1 IP, Western blot of ubiquitin)", "setting": "PD-L1", "value": "knockdown of endogenous ITCH reduced PD-L1 poly-ubiquitination (FIGS. 2F, 2G), while over-expression of ITCH increased PD-L1 poly-ubiquitination (FIG. 2H)"}, {"measurement": "poly-ubiquitination (anti-FLAG IP, Western blot of ubiquitin)", "setting": "PD-L1-FLAG", "value": "co-transfection of ITCH with either PD-L1-FLAG (FIG. 2E) or PD-L2-FLAG (FIG. 9I) led to poly-ubiquitination of PD-L1 or PD-L2, respectively"}, {"measurement": "ubiquitination sites by mass spectrometry", "setting": "PD-L1-FLAG", "value": "Mass spectrometry analysis identified lysine 46 (K46) and K162 of PD-L1 as major ubiquitination sites caused by ITCH over-expression in 293T cells"}, {"measurement": "poly-ubiquitination (anti-FLAG IP, Western blot of ubiquitin)", "setting": "PD-L2-FLAG", "value": "co-transfection of ITCH with either PD-L1-FLAG (FIG. 2E) or PD-L2-FLAG (FIG. 9I) led to poly-ubiquitination of PD-L1 or PD-L2, respectively"}]}]}
